Reference: PMC9646879, “Cryo-EM reveals the architecture of the PELP1-WDR18 molecular scaffold” (Nature Communications, 2022)

B1: epitope-tagged SENP3 (enzyme)
chain: not shown
notes: SENP3, human; Blots used anti-HA, anti-GFP and anti-MYC antibodies; also called SUMO protease SENP3; source: HEK293FT, transiently transfected; in lysate (co-IP) and co-purified with C-terminal FLAG-tagged PELP1 (cross-linking)
B2: N-terminally FLAG-tagged PELP1 Rix1 domain (1-642aa) (domain or fragment)
chain: not shown
notes: PELP1, human, N-terminal Rix1 domain, residues 1-642; Two copies stand in the PELP1-WDR18 heterotetramer of the cryo-EM structure; also called Rix1 domain of PELP1; source: HEK293FT, transiently transfected; not shown: FLAG, N-terminal, kept
B3: C-terminally HA-tagged WDR18 (full length) (natural protein, human, UniProt Q9BV38 1-432, looked up)
chain: MAAPMEVAVCTDSAAPMWSCIVWELHSGANLLTYRGGQAGPRGLALLNGEYLLAAQLGKNYISAWELQRKDQLQQKIMCPGPVTCLTASPNGLYVLAGVAESIHLWEVSTGNLLVILSRHYQDVSCLQFTGDSSHFISGGKDCLVLVWSLCSVLQADPSRIPAPRHVWSHHALPITDLHCGFGGPLARVATSSLDQTVKLWEVSSGELLLSVLFDVSIMAVTMDLAEHHMFCGGSEGSIFQVDLFTWPGQRERSFHPEQDAGKVFKGHRNQVTCLSVSTDGSVLLSGSHDETVRLWDVQSKQCIRTVALKGPVTNAAILLAPVSMLSSDFRPSLPLPHFNKHLLGAEHGDEPRHGGLTLRLGLHQQGSEPSYLDRTEQLQAVLCSTMEKSVLGGQDQLRVRVTELEDEVRNLRKINRDLFDFSTRFITRPAK
notes: WDR18, human, full length; The HA tag is stated for the cryo-EM sample; Two copies stand in the heterotetramer; source: HEK293FT, transiently transfected; in lysate (co-IP) and co-purified with FLAG-tagged PELP1 constructs on anti-FLAG gel (cryo-EM, cross-linking); not shown: HA, C-terminal, kept

Assays:
[1] = biological target: T1, C-terminal FLAG-tagged PELP1 (full length) (human, UniProt Q8IZL8 1-1130); experiment: cross-linking; BS3 cross-linking with mass spectrometry of the Rix1 complex purified via the C-terminal FLAG tag on full-length PELP1; 2.0 uM complex, 50 mM Hepes pH 7.3, 600 mM NaCl, 5 mM MgCl2, 5% glycerol, room temperature 10 min; BS3 1.2 mM (methods) or 0.12 mM (results); settings: both partners purified
T1 construct: also called C-terminal PELP1 IP; source: HEK293FT, transiently transfected; in lysate (co-IP) and purified with the Rix1 complex via the C-terminal FLAG tag (cross-linking); not shown: FLAG, C-terminal, kept
T1 sequence (Q8IZL8 whole entry): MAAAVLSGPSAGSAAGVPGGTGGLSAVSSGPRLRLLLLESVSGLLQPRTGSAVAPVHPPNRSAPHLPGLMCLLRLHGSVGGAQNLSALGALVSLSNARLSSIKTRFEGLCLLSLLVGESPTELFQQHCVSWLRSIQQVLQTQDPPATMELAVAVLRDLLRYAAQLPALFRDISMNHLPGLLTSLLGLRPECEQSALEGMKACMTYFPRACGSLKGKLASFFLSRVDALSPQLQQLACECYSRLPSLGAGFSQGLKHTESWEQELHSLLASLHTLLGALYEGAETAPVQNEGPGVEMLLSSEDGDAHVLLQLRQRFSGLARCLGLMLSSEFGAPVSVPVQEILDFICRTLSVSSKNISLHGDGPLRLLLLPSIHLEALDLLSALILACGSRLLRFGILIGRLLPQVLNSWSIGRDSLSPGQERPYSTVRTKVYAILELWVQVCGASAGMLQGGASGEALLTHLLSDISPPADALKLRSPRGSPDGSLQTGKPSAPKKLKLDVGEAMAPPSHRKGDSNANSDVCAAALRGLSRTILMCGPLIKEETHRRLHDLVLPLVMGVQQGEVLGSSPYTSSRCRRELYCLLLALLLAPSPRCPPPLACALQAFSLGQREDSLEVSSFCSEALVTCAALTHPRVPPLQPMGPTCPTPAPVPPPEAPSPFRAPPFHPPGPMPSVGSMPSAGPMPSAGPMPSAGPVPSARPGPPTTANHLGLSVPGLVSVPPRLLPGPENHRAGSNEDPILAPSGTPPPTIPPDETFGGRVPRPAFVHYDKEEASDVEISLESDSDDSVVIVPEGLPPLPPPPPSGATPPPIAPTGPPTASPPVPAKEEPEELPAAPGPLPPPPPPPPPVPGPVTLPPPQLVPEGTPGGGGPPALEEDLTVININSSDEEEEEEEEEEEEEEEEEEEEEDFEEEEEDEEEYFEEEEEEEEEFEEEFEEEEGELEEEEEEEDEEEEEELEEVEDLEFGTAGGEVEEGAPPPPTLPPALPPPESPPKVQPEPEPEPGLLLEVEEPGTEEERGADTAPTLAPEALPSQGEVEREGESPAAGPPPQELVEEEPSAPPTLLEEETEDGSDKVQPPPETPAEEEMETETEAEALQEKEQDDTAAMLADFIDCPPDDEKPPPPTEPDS

[2] = biological target: the molecule itself; experiment: cryo-EM structure; PELP1 Rix1 domain and WDR18 co-expressed in HEK293FT and co-purified on anti-FLAG gel; 150 mM NaCl, 50 mM Hepes pH 7.7, 5 mM MgCl2; 0.24 mg/ml; C2 symmetry, 2.7 Å
[3] = biological target: B2; experiment: cross-linking; BS3 cross-linking with mass spectrometry of the PELP1 Rix1 domain-WDR18 sub-complex purified via the N-terminal FLAG tag; 6.0 uM complex, 1.0 mM BS3, 50 mM Hepes pH 7.3, 600 mM NaCl, 5 mM MgCl2, 5% glycerol, room temperature 10 min; settings: both partners purified
epitope-tagged SENP3 = biological target: B1; experiment: cross-linking; BS3 cross-linking with mass spectrometry of the Rix1 complex purified via the C-terminal FLAG tag on full-length PELP1; 2.0 uM complex, 50 mM Hepes pH 7.3, 600 mM NaCl, 5 mM MgCl2, 5% glycerol, room temperature 10 min; BS3 1.2 mM (methods) or 0.12 mM (results); settings: both partners purified
Chain of epitope-tagged SENP3 (Q9H4L4 whole entry): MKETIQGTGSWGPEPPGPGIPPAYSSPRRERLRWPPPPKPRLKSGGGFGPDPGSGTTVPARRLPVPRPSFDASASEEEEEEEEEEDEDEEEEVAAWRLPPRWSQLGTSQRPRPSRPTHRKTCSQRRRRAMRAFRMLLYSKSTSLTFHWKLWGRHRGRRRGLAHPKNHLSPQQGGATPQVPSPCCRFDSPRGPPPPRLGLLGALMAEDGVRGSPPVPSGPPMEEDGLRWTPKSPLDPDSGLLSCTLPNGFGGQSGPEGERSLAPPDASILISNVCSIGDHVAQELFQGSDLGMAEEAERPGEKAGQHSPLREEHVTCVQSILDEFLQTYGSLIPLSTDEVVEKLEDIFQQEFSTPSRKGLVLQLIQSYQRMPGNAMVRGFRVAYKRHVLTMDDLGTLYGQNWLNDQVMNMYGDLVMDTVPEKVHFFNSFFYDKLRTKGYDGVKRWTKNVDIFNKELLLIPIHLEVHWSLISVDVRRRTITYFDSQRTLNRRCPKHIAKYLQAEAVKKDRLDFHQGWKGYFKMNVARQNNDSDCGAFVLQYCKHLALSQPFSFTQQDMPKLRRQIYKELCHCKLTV

Row | Binder | binding result [1] | stoichiometry N [2] | binding result [3] | binding result (epitope-tagged SENP3)
1 | B1 | binds | – | – | –
2 | B2 | – | 2 | – | –
3 | B3 | binds | – | binds | binds
